From patent publication US20100015637A1 (AbbVie / Abbott, published 2010)

T1: CHO-sourced human PlGF-1 (comprising amino acids 1-131; ATCC PTA-8537) (human, UniProt P49763 19-221, glycosylated (CHO-expressed))
T1 sequence: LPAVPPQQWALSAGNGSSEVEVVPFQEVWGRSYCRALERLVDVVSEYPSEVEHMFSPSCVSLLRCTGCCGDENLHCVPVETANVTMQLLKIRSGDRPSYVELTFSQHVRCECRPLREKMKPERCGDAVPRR

T2: CHO human PlGF-1 fragment (comprising amino acids 17-131; ATCC PTA-8540) (human, UniProt P49763 35-221)
T2 sequence: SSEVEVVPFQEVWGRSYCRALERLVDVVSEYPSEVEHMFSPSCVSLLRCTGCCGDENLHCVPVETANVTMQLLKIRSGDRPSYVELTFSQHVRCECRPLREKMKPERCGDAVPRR

T3: human PlGF-1 comprising amino acids 1-137 produced in human embryonic kidney cells (human, UniProt P49763 19-221)
T3 construct: Mature human PlGF-1 with 6xHis tag; also called HEK (1-137); full length HEK human PlGF-1 (1-137)
T3 sequence: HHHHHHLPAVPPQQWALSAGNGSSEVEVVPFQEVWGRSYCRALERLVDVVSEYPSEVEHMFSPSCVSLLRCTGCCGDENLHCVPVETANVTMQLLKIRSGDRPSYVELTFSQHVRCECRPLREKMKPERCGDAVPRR

T4: human PlGF-1 fragment (comprising amino acids 17-131) produced in human embryonic kidney cells (human, UniProt P49763 35-221)
T4 sequence: T2 sequence

T5: CHO human PlGF-1 comprising amino acids 1-137 (human PlGF-1-His (1-131), CHO 6305) (human, UniProt P49763 19-221, N-glycans at N21 (completely glycosylated) and N89 (partially glycosylated))
T5 construct: Mature human PlGF-1 with 6xHis tag (137 amino acids); also called CHO (1-137)
T5 sequence: T3 sequence

B1: monoclonal antibody 2-826-335 (produced by murine hybridoma cell line 2-826-335, ATCC PTA-8539) (antibody, mouse IgG1, V domains shown)
VH: QVQLKQSGPGLVQPSQSLSITCTVSGFSLTTYGIHWVRQSPGKGLEWLGVMWSGGDTDYDAAFISRLSISKDNSKSQVFFKMNSLQANDTGIYYCARYRFYGMDYWGQGTSVTVSS
VL: AIQMTQSSSSFSVSLGDRVTITCKASEDIYNRFAWYQQKPGNAPRLLISGAASLEAGVPSRFSGSGSGQDYTLSITSLQTEDVATYYCQQYWSTPWTFGGGTKLEIKR
notes: also called MAb826
B2: monoclonal antibody 1-255-713 (produced by murine hybridoma cell line 1-255-713, ATCC PTA-8536) (antibody, mouse IgG2a, V domains shown)
VH: QVHLQQSGAELMKPGASVKISCKATGYTFSSYWIEWVKQRPGHGLEWIGEILPGSVSNNFNEKFKDKATLTADPSSNTAYIQVSSLTSEDSAVYYCARSTGFYYGGNYFDHWGQGTTLAVSS
VL: DVVMTQTPLSLPVSPGDQASISCRSSQSLVHSNGHTYLHWYLQKPGQSPKLLIYKVSNRFSGVPDRVSGSGSGTDFTLKISRVEAEDLGVYFCSQSTHVPPTFGGGTKLEIKR
notes: also called MAb255

Legend:
[1] = molecular target: human PlGF-1 comprising amino acids 1-137 produced in human embryonic kidney cells (human) (UniProt P49763); test: Format 2 …, capture MAb264, detection Pb264; sFlt-1 2300 pmol/L (ratio 75)
[2] = molecular target: human PlGF-1 comprising amino acids 1-137 produced in human embryonic kidney cells (human) (UniProt P49763); test: Format 3 Quantikine ELISA, capture MAb264, detection Pb264; sFlt-1 4600 pmol/L (ratio 150)
[3] = molecular target: recombinant human PlGF-1 (comprising amino acids 1-131) expressed in E. coli (R&D Systems) (human) (UniProt P49763); test: SPR (BIAcore 2000); MAb captured on anti-mouse IgG chip, antigen in solution; 1:1 fit with mass transport
[4] = molecular target: T1, CHO-sourced human PlGF-1 (comprising …); test: as above
Procedure: (§1) First, a ˜5,500 RU rabbit anti-mouse IgG Capture Biosensor was created by amine-coupling rabbit anti-mouse IgG antibody (BIAcore® International AB, a GE Healthcare company, Uppsala, Sweden) to a CM4 biosensor chip (BIAcore® International AB, a GE Healthcare company, Uppsala, Sweden) via EDC/NHS/Ethanolamine chemistry provided in an Amine Coupling Kit (BIAcore® International AB, a GE Healthcare company, Uppsala, Sweden). Human PlGF-1 monoclonal antibodies and human PlGF-1 antigens were diluted into a running buffer (hereinafter “Running Buffer”) composed of HBS-EP buffer (BIAcore® International AB, a GE Healthcare company, Uppsala, Sweden) spiked with 0.1% BSA and 0.1% CM-Dextran.
(§2) After equilibrating the rabbit anti-mouse IgG Capture Biosensor for 5 minutes at 5 μL/minute with Running Buffer, 5 to 10 μL of human PlGF-1 monoclonal antibody was injected over individual flow cells with one flow cell being left blank as a reference flow cell. The flow cells were washed for 6 minutes at 50 μL/minute with Running Buffer before injecting 150 μL of human PlGF-1 or human PlGF-1 fragment antigen at a […] concentration across the biosensor, which was immediately followed by 15 minutes of Running Buffer. The biosensor was regenerated with one 30 μL injections of 10 mM Glycine pH 1.7 (BIAcore® International AB, a GE Healthcare company, Uppsala, Sweden) at a flow rate of 10 μL/minute.

[5] = molecular target: T2, CHO human PlGF-1 fragment (comprising …); test: as above
Procedure: as §1, §2

[6] = molecular target: recombinant human PlGF-1 (comprising amino acids 1-131) expressed in E. coli (R&D Systems) (human) (UniProt P49763); test: … sandwich, capture MAb826, detection pAb264; antigen 1500 pg/mL
[7] = molecular target: T3, human PlGF-1 comprising amino acids …; test: … sandwich, capture MAb255, detection MAb826; antigen 0 pg/mL (blank)
Outline: (§3)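 Human PlGF-1 antigen preparations, including CHO cell-expressed recombinant forms, spanned 0 to 1500 pg/mL in a sandwich immunoassay. A monoclonal anti-human PlGF-1 antibody, immobilized on magnetic microparticles through passive coating and EDAC cross-linking, captured the antigen, and an acridinium ester-labeled monoclonal anti-human PlGF-1 antibody detected it. Chemiluminescent relative light units (RLU) were recorded for every antigen level.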

[8] = molecular target: T2, CHO human PlGF-1 fragment (comprising …); test: as above
Outline: as §3

[9] = molecular target: T4, human PlGF-1 fragment (comprising amino …); test: as above
Outline: as §3

[10] = molecular target: T5, CHO human PlGF-1 comprising amino acids …; test: as above
Outline: as §3

[11] = molecular target: T4, human PlGF-1 fragment (comprising amino …); test: … sandwich, capture MAb255, detection pAb264; antigen 250 pg/mL
[12] = molecular target: recombinant human PlGF-1 (comprising amino acids 1-131) expressed in E. coli (R&D Systems) (human) (UniProt P49763); test: … sandwich, capture MAb255, detection pAb264; antigen 60 pg/mL

Molecule	% Inhibition [1] [%]	PlGF-1 Measured [1] [pg/mL]	% Inhibition [2] [%]	PlGF-1 Measured [2] [pg/mL]	Kd [3] [pM]	koff [3] [s⁻¹]	kon [3] [M⁻¹ s⁻¹]	Kd [4] [pM]	koff [4] [s⁻¹]	kon [4] [M⁻¹ s⁻¹]	Kd [5] [pM]	koff [5] [s⁻¹]	kon [5] [M⁻¹ s⁻¹]	RLU [6] [RLU]	RLU [7] [RLU]	RLU [8] [RLU]	RLU [9] [RLU]	RLU [10] [RLU]	RLU [11] [RLU]	RLU [12] [RLU]
native sFlt-1, isolated from human placental tissue (from UniProt P17948 27-687) (receptor)	95	39.7	81.6	159	–	–	–	–	–	–	–	–	–	–	–	–	–	–	–	–
B1	–	–	–	–	92	0.000214	2.34e+06	498	0.000325	652000	219	0.000291	1.33e+06	1.08e+06	–	–	–	–	–	–
B2	–	–	–	–	368	0.000121	329000	1700	0.000123	73000	710	0.000129	182000	–	6110	5940	5760	6270	363000	161000
